Patent CN106117361A

Target: CD3 on Jurkat cells (Jurkat靶标细胞) (UniProt P07766)
Experiment: flow cytometry, culture supernatant on Jurkat cells (negative control; TG1 background 132.03)

Chain of UniProt P07766 (P07766 23-207): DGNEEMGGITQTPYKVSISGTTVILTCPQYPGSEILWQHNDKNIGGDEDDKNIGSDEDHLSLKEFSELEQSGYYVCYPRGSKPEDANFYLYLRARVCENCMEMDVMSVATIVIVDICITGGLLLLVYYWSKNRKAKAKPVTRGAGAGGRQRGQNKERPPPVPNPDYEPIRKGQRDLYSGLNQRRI

NC-sdAb(相同形式的非相关性sdAb) (VHH) showed a 结合MFI of 115 MFI.
